Data: IntAct's records for PubMed 38225382

B1: Peroxisomal biogenesis factor 3 (Homo sapiens), P56589 (parent)
chain: MLRSVWNFLKRHKKKCIFLGTVLGGVYILGKYGQKKIREIQEREAAEYIAQARRQYHFESNQRTCNMTVLSMLPTLREALMQQLNSESLTALLKNRPSNKLEIWEDLKIISFTRSTVAVYSTCMLVVLLRVQLNIIGGYIYLDNAAVGKNGTTILAPPDVQQQYLSSIQHLLGDGLTELITVIKQAVQKVLGSVSLKHSLSLLDLEQKLKEIRNLVEQHKSSSWINKDGSKPLLCHYMMPDEETPLAVQACGLSPRDITTIKLLNETRDMLESPDFSTVLNTCLNRGFSRLLDNMAEFFRPTEQDLQHGNSMNSLSSVSLPLAKIIPIVNGQIHSVCSETPSHFVQDLLTMEQVKDFAANVYEAFSTPQQLEK
partner: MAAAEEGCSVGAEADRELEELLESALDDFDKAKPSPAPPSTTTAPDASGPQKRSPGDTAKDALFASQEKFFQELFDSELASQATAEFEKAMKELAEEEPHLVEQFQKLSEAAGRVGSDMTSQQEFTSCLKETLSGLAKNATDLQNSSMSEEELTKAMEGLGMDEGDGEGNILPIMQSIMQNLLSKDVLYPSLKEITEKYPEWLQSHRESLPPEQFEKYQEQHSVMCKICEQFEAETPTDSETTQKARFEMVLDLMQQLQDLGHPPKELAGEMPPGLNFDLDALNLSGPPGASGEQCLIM
B2: F-box only protein 28 (Homo sapiens), Q9NVF7 (parent)
chain: MAAAAEERMAEEGGGGQGDGGSSLASGSTQRQPPPPAPQHPQPGSQALPAPALAPDQLPQNNTLVALPIVAIENILSFMSYDEISQLRLVCKRMDLVCQRMLNQGFLKVERYHNLCQKQVKAQLPRRESERRNHSLARHADILAAVETRLSLLNMTFMKYVDSNLCCFIPGKVIDEIYRVLRYVNSTRAPQRAHEVLQELRDISSMAMEYFDEKIVPILKRKLPGSDVSGRLMGSPPVPGPSAALTTMQLFSKQNPSRQEVTKLQQQVKTNGAGVTVLRREISELRTKVQEQQKQLQDQDQKLLEQTQIIGEQNARLAELERKLREVMESAVGNSSGSGQNEESPRKRKKATEAIDSLRKSKRLRNRK
B3: E3 ubiquitin-protein ligase TRIM37 (Homo sapiens), O94972 (parent)
chain: MDEQSVESIAEVFRCFICMEKLRDARLCPHCSKLCCFSCIRRWLTEQRAQCPHCRAPLQLRELVNCRWAEEVTQQLDTLQLCSLTKHEENEKDKCENHHEKLSVFCWTCKKCICHQCALWGGMHGGHTFKPLAEIYEQHVTKVNEEVAKLRRRLMELISLVQEVERNVEAVRNAKDERVREIRNAVEMMIARLDTQLKNKLITLMGQKTSLTQETELLESLLQEVEHQLRSCSKSELISKSSEILMMFQQVHRKPMASFVTTPVPPDFTSELVPSYDSATFVLENFSTLRQRADPVYSPPLQVSGLCWRLKVYPDGNGVVRGYYLSVFLELSAGLPETSKYEYRVEMVHQSCNDPTKNIIREFASDFEVGECWGYNRFFRLDLLANEGYLNPQNDTVILRFQVRSPTFFQKSRDQHWYITQLEAAQTSYIQQINNLKERLTIELSRTQKSRDLSPPDNHLSPQNDDALETRAKKSACSDMLLEGGPTTASVREAKEDEEDEEKIQNEDYHHELSDGDLDLDLVYEDEVNQLDGSSSSASSTATSNTEENDIDEETMSGENDVEYNNMELEEGELMEDAAAAGPAGSSHGYVGSSSRISRRTHLCSAATSSLLDIDPLILIHLLDLKDRSSIENLWGLQPRPPASLLQPTASYSRKDKDQRKQQAMWRVPSDLKMLKRLKTQMAEVRCMKTDVKNTLSEIKSSSAASGDMQTSLFSADQAALAACGTENSGRLQDLGMELLAKSSVANCYIRNSTNKKSNSPKPARSSVAGSLSLRRAVDPGENSRSKGDCQTLSEGSPGSSQSGSRHSSPRALIHGSIGDILPKTEDRQCKALDSDAVVVAVFSGLPAVEKRRKMVTLGANAKGGHLEGLQMTDLENNSETGELQPVLPEGASAAPEEGMSSDSDIECDTENEEQEEHTSVGGFHDSFMVMTQPPDEDTHSSFPDGEQIGPEDLSFNTDENSGR
B4: GRB10-interacting GYF protein 1 (Homo sapiens), O75420 (parent)
chain: MAAETLNFGPEWLRALSGGGSVASPPPSPAMPKYKLADYRYGREEMLALYVKENKVPEELQDKEFAAVLQDEPLQPLALEPLTEEEQRNFSLSVNSVAVLRLMGKGAGPPLAGTSRGRGSTRSRGRGRGDSCFYQRSIEEGDGAFGRSPREIQRSQSWDDRGERRFEKSARRDGARCGFEEGGAGPRKEHARSDSENWRSLREEQEEEEEGSWRLGAGPRRDGDRWRSASPDGGPRSAGWREHGERRRKFEFDLRGDRGGCGEEEGRGGGGSSHLRRCRAPEGFEEDKDGLPEWCLDDEDEEMGTFDASGAFLPLKKGPKEPIPEEQELDFQGLEEEEEPSEGLEEEGPEAGGKELTPLPPQEEKSSSPSPLPTLGPLWGTNGDGDETAEKEPPAAEDDIRGIQLSPGVGSSAGPPGDLEDDEGLKHLQQEAEKLVASLQDSSLEEEQFTAAMQTQGLRHSAAATALPLSHGAARKWFYKDPQGEIQGPFTTQEMAEWFQAGYFSMSLLVKRGCDEGFQPLGEVIKMWGRVPFAPGPSPPPLLGNMDQERLKKQQELAAAALYQQLQHQQFLQLVSSRQLPQCALREKAALGDLTPPPPPPPQQQQQQLTAFLQQLQALKPPRGGDQNLLPTMSRSLSVPDSGRLWDVHTSASSQSGGEASLWDIPINSSTQGPILEQLQLQHKFQERREVELRAKREEEERKRREEKRRQQQQEEQKRRQEEEELFRRKHVRQQELLLKLLQQQQAVPVPPAPSSPPPLWAGLAKQGLSMKTLLELQLEGERQLHKQPPPREPARAQAPNHRVQLGGLGTAPLNQWVSEAGPLWGGPDKSGGGSSGLGLWEDTPKSGGSLVRGLGLKNSRSSPSLSDSYSHLSGRPIRKKTEEEEKLLKLLQGIPRPQDGFTQWCEQMLHTLSATGSLDVPMAVAILKEVESPYDVHDYIRSCLGDTLEAKEFAKQFLERRAKQKASQQRQQQQEAWLSSASLQTAFQANHSTKLGPGEGSKAKRRALMLHSDPSILGYSLHGSSGEIESVDDY

Variants of: B1
Conditions: with pex19_human PEX19, P40855

Row | Variant | effect of a mutation on the interaction
1 | MLRSVWNFLKRHKKKCIFLGTVLGGVYILGKYGQKKIREIQEREAAEYIAQARRQYHFESNQRTCNMTVLSMLPTLREALMQQLNSESLQALLKNRPSNKLEIWEDLKIISFTRSTVAVYSTCMLVVLLRVQLNIIGGYIYLDNAAVGKNGTTILAPPDVQQQYLSSIQHLLGDGLTELITVIKQAVQKVLGSVSLKHSLSLLDLEQKLKEIRNLVEQHKSSSWINKDGSKPLLCHYMMPDEETPLAVQACGLSPRDITTIKLLNETRDMLESPDFSTVLNTCLNRGFSRLLDNMAEFFRPTEQDLQHGNSMNSLSSVSLPLAKIIPIVNGQIHSVCSETPSHFVQDLLTMEQVKDFAANVYEAFSTPQQLEK [T90Q] | with no effect
2 | MLRSVWNFLKRHKKKCIFLGTVLGGVYILGKYGQKKIREIQEREAAEYIAQARSQYHFESNQRTCNMTVLSMLPTLREALMQQLNSESLTALLKNRPSNKLEIWEDLKIISFTRSTVAVYSTCMLVVLLRVQLNIIGGYIYLDNAAVGKNGTTILAPPDVQQQYLSSIQHLLGDGLTELITVIKQAVQKVLGSVSLKHSLSLLDLEQKLKEIRNLVEQHKSSSWINKDGSKPLLCHYMMPDEETPLAVQACGLSPRDITTIKLLNETRDMLESPDFSTVLNTCLNRGFSRLLDNMAEFFRPTEQDLQHGNSMNSLSSVSLPLAKIIPIVNGQIHSVCSETPSHFVQDLLTMEQVKDFAANVYEAFSTPQQLEK [R54S] | with no effect
3 | MLRSVWNFLKRHKKKCIFLGTVLGGVYILGKYGQKKIREIQEREAAEYIAQARRQYHFESNQRTCNMTVLSMLPTLREALMQQLNSESLTALLKNRPSNKLEIWEDLKIISFTRSTVAVYSTCMLVVLLRVQLNIIGGYIYLDNAAVGKNGTTILAPPDVQQQYLSSIQHLLGDGLTELITVIKQAVQKVLGSVSLKHSLSLLDLEQKLKEIRNLVEQHKSSSWINKDGSKPLLCHYMMPDEETPLAVQACGLSPRDITTIKLLNETRDMLRSPDFSTVLNTCLNRGFSRLLDNMAEFFRPTEQDLQHGNSMNSLSSVSLPLAKIIPIVNGQIHSVCSETPSHFVQDLLTMEQVKDFAANVYEAFSTPQQLEK [E272R] | with no effect

Variants of: B2
Conditions: with stx1b_human STX1B

Row | Variant | effect of a mutation on the interaction
4 | MAAAAEERMAEEGGGGQGDGGSSLASGSTQRQPPPPAPQHPQPGSQALPAPALAPDQLPQNNTLVALPIVAIENILSFMSYDEISQLRLVCKRMDLVCQRMLNQGFLKVERYHNLCQKQVKAQLPRRESERRNHSLARHADILAAVETRLSELNMTFMKYVDSNLCCFIPGKVIDEIYRVLRYVNSTRAPQRAHEVLQELRDISSMAMEYFDEKIVPILKRKLPGSDVSGRLMGSPPVPGPSAALTTMQLFSKQNPSRQEVTKLQQQVKTNGAGVTVLRREISELRTKVQEQQKQLQDQDQKLLEQTQIIGEQNARLAELERKLREVMESAVGNSSGSGQNEESPRKRKKATEAIDSLRKSKRLRNRK [L152E] | decreasing interaction strength
5 | MAAAAEERMAEEGGGGQGDGGSSLASGSTQRQPPPPAPQHPQPGSQALPAPALAPDQLPQNNTLVALPIVAIENILSFMSYDEISQLRLVCKRMDLVCQRMLNQGFLKVERYHNLCQKQVKAQLPRRESERRNHSLARHADILAAVETRLSLLNMTFMKYVDSNLCCFIPGKVIDEIYRVLRYVNSTRAPQRAHEVLQELRDISSMAMEYFDEKIVPILKRKLPGSDVSGRLMGSPPVPGPSAALTTMQLFSKQNPSRQEVTKLQQQVKTNGAGVTVLRREISELRTKVQEQQKQLQDQDQKLLEQTQIIGEQNARLAELERKLREVMESAVGNSSGSGQNEESPRKLKKATEAIDSLRKSKRLRNRK [R348L] | increasing interaction strength
6 | MAAAAEERMAEEGGGGQGDGGSSLASGSTQRQPPPPAPQHPQPGSQALPAPALAPDQLPQNNTLVALPIVAIENILSFMSYDEISQLRLVCKRMDLVCQRMLNQGFLKVERYHNLCQKQVKAQLPRRESERRNHSLARHADILAAVETRLSLLNMTFMKYVDSNLCCFIPGKVIDEIYRVLRYVNSTRAPQRAHEVLQELRDISSMAMEYFDEKIVPILKRKLPGSDVSGRLMGSPPVPGPSAALTTMQLFSKQNPSRQEVTKLQQQVKTNGAGVTVLRREISELRTKVQEQQKQLQDQDQKLLEQTQIIGEQNARLAELERKLREVMESAVGNSSGSGQNEESPRKRKKATEARDSLRKSKRLRNRK [I355R] | with no effect

Variants of: B3
Conditions: with pnkp_human PNKP

Row | Variant | effect of a mutation on the interaction
7 | F328R | with no effect
8 | N376R | with no effect

Variants of: B4
Conditions: with SNRPB

Row | Variant | effect of a mutation on the interaction
9 | L508F | with no effect
10 | W498E | decreasing interaction strength
